Measured values as given in patent US20170334973A1 (INTEGRATED BIOTHERAPEUTICS, published 2017).
Substitutions are numbered along the chain they refer to.

B1: FVM09 (antibody, V domains shown)
VH: EVQLVQSGAEVKRPGESLTISCKTSGYSFTDSWVAWVRQMPGKGLEWLGSIYPGDSETKYNPSFQGHVTISADKSVTTTYLKWSSLKASDTATYYCVKGSETWGQGVLVTVSS
VL: QLVLTQPASLSASPGASASLTCTFSGGINVAGYNILWYQQKAGSPPRYLLRYKSDSTKDQGSGVPSRFSGSKDASANTGILRISGLQSEDEADYYCAIGHSSGWIFGGGTRLTVL
B2: FVM13 (antibody, V domains shown)
VH: EVQLVQSGAEVKRPGESLKISCKTSGYTFTSSWISWVRQMPGKGLEWLGSIYPGDSDTRYNPSFQGHVTISADTSIITTHLQWSSLKASDTATYYCVKGSETWGQGVLVTVSS
VL: B1 VL with Q1K, L2P, V3M, A8T
B3: FVM20 (antibody, V domains shown)
VH: B1 VH with Q6E, D31G, V34I, A35S
VL: B1 VL with Q1N, L2F, V3M, P7S, N34H, L36F, K41N, A42P, T57E
B4: FVM03 (antibody, V domains shown)
VH: QVQLQESGPVLVKPSETLSLTCAVSGYSISSAYAWSWIRQPPGKGLEWVGYVGSSSDYNPSLKSRVTISRDTSKNRIFLNLRSLTAADTAVYYCARDRANNSMDVWGRGVLVTVSS
VL: EIVLTQSPDSLGVSLGERVTINCKSSQSLLYSSNNKNYLAWYQQKPGQAPKLLIYWASTRESGVPNRFSGSGSGTDFTLTISGLQAEDVAVYYCQQYYSTPLTFGQGTKVEIKR
B5: FVM01P (antibody, V domains shown)
VH: QVQLQESGPGLVKPSETLSLTCTVSGASISNYRWNWIRQPPGKGLEWIGEINGYSGSTNYNPSLKSRVTISKDASKNQFSLKLTSVTAADTAVYYCPIIGGFTLEWFDVWGPGVLVTVSS
VL: DVVLTQSPSSLSASVGDRVTITCRASQGIRNYLNWYQQKPRKAPKLLIYAASSLQSGVPSRFSGSGSGTEFTLTISSLQAEDFATYYCLQGYRTPFTFGPGTKLDIKR
B6: FVM02P (antibody, V domains shown)
VH: EVQLVESGGGLVQPGGSLRLSCAASGFTGFTFSDYAFYWVRQAPGKGLEWVGFIRGKAYGGTADYAASVKGRFTISRDNSKNTAYLQMSSLKTEDSAVYYCTSQGVTVATPYHWGQGVLVTVSS
VL: DIVLTQSPLSLPVTPGEPASISCRSSQSLLHSGGKTYLYWYLQKPGQSPQLLIHEVSNRASGVPDRFSGSGSGTDFTLKISRVEAEDVGVYYCMQGIQLPLTFGGGTKVEIKR

Assays:
[1] = biological target: T1, EBOV GPcl (Ebola virus (EBOV), UniProt Q05320 33-200; Q05320 502-632); assay: ELISA
T1 sequence 1: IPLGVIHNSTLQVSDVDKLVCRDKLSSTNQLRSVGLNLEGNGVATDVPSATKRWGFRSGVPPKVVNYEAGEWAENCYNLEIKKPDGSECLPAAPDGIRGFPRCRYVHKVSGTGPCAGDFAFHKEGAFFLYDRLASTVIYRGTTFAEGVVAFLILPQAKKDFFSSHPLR
T1 sequence 2: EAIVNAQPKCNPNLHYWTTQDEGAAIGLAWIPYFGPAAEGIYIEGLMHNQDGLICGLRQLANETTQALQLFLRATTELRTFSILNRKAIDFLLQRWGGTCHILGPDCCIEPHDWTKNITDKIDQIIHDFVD

[2] = biological target: T2, SUDV VLP (Sudan virus (SUDV), UniProt Q66814 33-676); assay: ELISA
T2 sequence: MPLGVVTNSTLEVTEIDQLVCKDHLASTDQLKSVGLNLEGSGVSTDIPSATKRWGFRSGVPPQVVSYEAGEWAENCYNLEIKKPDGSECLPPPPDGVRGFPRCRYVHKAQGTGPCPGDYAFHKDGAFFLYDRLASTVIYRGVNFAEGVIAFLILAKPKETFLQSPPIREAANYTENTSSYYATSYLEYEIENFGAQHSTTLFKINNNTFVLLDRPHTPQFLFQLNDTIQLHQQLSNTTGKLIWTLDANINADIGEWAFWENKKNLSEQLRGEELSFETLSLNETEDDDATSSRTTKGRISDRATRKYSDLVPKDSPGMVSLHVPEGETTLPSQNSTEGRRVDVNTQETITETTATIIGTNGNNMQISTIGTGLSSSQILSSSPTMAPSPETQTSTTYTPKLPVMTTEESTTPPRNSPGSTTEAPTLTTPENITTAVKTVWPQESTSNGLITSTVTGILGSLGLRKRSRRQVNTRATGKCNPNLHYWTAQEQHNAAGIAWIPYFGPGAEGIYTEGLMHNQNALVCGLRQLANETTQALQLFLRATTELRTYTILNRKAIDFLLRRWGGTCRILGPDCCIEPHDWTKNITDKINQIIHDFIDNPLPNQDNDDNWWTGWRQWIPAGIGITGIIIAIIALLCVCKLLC

[3] = biological target: T3, EBOV VLP (Ebola virus (EBOV), UniProt Q05320 33-676); assay: ELISA
T3 sequence: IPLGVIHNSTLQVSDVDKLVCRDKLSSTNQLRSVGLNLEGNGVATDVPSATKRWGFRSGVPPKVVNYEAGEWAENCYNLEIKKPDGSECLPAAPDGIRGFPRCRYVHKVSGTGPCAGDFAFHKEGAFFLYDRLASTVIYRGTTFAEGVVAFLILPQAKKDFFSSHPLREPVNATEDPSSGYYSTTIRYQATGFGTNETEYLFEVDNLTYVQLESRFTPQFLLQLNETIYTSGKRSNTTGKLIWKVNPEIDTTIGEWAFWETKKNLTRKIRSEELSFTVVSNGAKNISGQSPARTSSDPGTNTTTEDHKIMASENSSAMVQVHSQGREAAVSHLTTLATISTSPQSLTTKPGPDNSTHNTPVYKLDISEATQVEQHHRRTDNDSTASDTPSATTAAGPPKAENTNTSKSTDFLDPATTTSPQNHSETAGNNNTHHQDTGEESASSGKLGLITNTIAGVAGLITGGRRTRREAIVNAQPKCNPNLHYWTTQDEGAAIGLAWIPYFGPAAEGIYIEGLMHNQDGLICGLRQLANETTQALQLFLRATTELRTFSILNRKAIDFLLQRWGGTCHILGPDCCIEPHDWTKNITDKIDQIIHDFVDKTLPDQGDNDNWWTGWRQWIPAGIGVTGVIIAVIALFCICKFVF

[4] = biological target: T4, MARV (Musoke strain) GP (Marburg virus (MARV), Musoke strain, UniProt P35253 19-648); assay: GP ELISA, purified mAb
T4 sequence: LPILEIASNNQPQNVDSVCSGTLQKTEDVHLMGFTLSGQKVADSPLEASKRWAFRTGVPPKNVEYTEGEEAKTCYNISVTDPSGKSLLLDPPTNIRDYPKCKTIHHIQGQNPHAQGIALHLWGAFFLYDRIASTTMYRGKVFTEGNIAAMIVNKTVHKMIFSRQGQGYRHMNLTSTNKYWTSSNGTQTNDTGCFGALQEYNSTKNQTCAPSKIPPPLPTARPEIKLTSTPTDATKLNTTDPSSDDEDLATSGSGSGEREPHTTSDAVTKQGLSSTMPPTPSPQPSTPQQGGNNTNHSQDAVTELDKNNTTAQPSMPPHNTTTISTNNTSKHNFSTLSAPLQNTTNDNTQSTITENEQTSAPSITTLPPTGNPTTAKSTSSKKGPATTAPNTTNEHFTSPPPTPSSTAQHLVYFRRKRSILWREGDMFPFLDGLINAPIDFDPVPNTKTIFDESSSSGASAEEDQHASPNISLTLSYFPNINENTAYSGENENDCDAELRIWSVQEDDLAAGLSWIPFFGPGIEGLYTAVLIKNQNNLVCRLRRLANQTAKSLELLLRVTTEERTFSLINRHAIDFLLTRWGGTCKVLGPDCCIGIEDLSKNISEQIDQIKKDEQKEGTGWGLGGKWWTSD

[5] = biological target: T5, MARV VLP (Marburg virus (MARV), UniProt P35253 19-681); assay: ELISA
T5 sequence: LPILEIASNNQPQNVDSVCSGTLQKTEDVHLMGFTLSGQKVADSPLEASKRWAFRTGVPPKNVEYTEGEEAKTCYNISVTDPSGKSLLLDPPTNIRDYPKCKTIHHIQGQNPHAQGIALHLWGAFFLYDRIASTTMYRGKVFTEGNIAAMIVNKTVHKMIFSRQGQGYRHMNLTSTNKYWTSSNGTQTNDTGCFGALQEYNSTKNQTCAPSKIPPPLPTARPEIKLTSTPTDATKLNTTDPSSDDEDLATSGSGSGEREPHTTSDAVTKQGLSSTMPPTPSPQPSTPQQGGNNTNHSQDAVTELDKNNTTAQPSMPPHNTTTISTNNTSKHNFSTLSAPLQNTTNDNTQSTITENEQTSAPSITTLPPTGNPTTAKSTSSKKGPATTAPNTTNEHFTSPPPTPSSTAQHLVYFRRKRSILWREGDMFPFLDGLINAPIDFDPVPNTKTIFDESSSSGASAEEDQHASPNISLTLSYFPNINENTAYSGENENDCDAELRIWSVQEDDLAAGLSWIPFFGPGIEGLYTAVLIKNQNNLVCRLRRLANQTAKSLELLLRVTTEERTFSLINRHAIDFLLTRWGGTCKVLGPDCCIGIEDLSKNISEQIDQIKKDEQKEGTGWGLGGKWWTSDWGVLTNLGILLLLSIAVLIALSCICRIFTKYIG

[6] = biological target: T6, EBOV soluble GP (sGP) (Ebola virus (EBOV), UniProt P60170 33-324); assay: ELISA
T6 sequence: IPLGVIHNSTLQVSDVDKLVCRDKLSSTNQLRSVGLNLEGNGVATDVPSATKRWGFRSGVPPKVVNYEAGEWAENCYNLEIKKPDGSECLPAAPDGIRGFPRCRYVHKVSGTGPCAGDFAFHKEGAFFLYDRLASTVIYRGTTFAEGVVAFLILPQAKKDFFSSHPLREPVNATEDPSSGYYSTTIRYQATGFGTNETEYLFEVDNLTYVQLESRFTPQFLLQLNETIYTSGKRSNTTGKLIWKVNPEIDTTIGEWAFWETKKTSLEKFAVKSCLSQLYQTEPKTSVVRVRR

| Binder | binding result [1] | EC50 [2] | EC50 [3] | binding result [4] | EC50 [5] | binding result [6] | EC50 [4] |
| --- | --- | --- | --- | --- | --- | --- | --- |
| B1 | no binding | 21.3 nM | 24.2 nM | no binding | – | – | – |
| B2 | – | 0.144 nM | 0.198 nM | no binding | – | – | – |
| B3 | – | 32.9 nM | 1.29 nM | no binding | – | – | – |
| B4 | – | – | – | – | 0.793 nM | – | – |
| B5 | – | 0.319 nM | 0.459 nM | no binding | – | – | – |
| B6 | – | 0.351 nM | 0.489 nM | – | 7.73 nM | no binding | 1 µg/mL |
